{
  "source": "patent US10202593B2",
  "about": "“Evolved sortases and uses thereof” (President and Fellows of Harvard College, priority 2013, dated 2019)",
  "format_in_all_cases": "biochemical",
  "key": {"LSETG": {"tested_on": "LSETG", "assay": "In vitro sortase kinetics HPLC assay, LSETG substrate", "protocol": "(§1) See below for details on sortase expression and purification, and on the synthesis of Abz-LPETGK(Dnp)-CONH2 (SEQ ID NO: 19). […] Reactions were initiated with the addition of enzyme and incubated at 22.5° C. for 3 to 20 minutes before quenching with 0.5 volumes of 1 M HCl. Five to ten nmol of peptide from the quenched reactions were injected onto an analytical reverse-phase Eclipse XDB-C18 HPLC column (4.6×150 mm, 5 μm, Agilent Technologies) and chromatographed using a gradient of 10 to 65% acetonitrile with 0.1% TFA in 0.1% aqueous TFA over 13 minutes. Retention times under these conditions for the Abz-LPETGK(Dnp)-CONH2 (SEQ ID NO: 19) substrate, the released GKDnp peptide, and the Abz-LPETGGG-COOH (SEQ ID NO: 20) product were 12.8, 10.4, and 9.1 min, respectively. To calculate the percent conversion, the ratio of the integrated areas of the Abz-LPETGGG-COOH (SEQ ID NO: 20) and Abz-LPETGK(Dnp)-CONH2 (SEQ ID NO: 19) peptide Abs220 peaks was compared to a standard curve generated by mixing the product and starting peptide in known ratios. To determine […] and Km, reaction rates were fit to the Michaelis-Menten equation using OriginPro 7.0 software. All kinetics values reported represent the average of at least three measurements. Percent conversion was also calculated by using the ratio of the integrated areas of the GK(Dnp)-CONH2 and Abz-LPETGK(Dnp)-CONH2 peptide Abs355 peaks were compared directly (Example 5). To determine kcat and Km, LPETG, reaction rates were fit to the Michaelis-Menten equation using Microsoft Excel using the Solver add-in. To determine Km,GGG and KH, reaction rates were fit to the modified Michaelis-Menten, for which KH is as defined when KH<<Km,GGG.\n(§2) Assays to determine eSrtA, eSrtA(2A-9) and eSrtA(4S-9) specificity were performed by preparing 10 μM stocks of Abz-LXEXGK(Dnp) (SEQ ID NO: 75) peptides in 300 mM Tris pH 7.5, 150 mM NaCl, 5 mM CaCl2, 5% v/v DMSO, and 100 mM Gly-Gly-Gly-COOH (GGG). Reactions were performed by adding eSrtA(2A-9) to a final concentration of 450 nM, eSrtA(4S-9) to a final concentration of 115 nM or eSrtA to a final concentration of 47.5 nM and a final volume of 100 μL, then incubating at 22.5° C. for 15 minutes. Reactions were quenched by the addition of 0.2 volumes of 5 M HCl, then were injected onto an analytical reverse-phase Eclipse XDB-C18 HPLC column (4.6×150 mm, 5 μm, Agilent Technologies) and chromatographed using a gradient of 10 to 65% acetonitrile with 0.1% TFA in 0.1% aqueous TFA over 13 minutes. Retention times under these conditions for the Abz-LPETGK(Dnp)-CONH2 (SEQ ID NO: 19) substrate, the released GKDnp peptide, and the Abz-LPETGGG-COOH (SEQ ID NO: 20) product were 12.8, 10.4, and 9.1 min, respectively, while the remaining Abz-LXEXGK(Dnp)-CONH2 (SEQ ID NO: 74) substrates varied in retention time between 9 and 13 minutes. To calculate the percent conversion, the ratio of the integrated areas of the GK(Dnp)-CONH2 and Abz-LPETGK(Dnp)-CONH2 (SEQ ID NO: 19) peptide Abs355 peaks were compared directly. Subsequent determination of kcat/Km and KH were performed as described for in vitro SrtA characterization.\n(§3) The original pentamutant comprising the mutations P94R, D160N, D165A, K190E, and K196T is referred to as eSrtA. Sortase variants herein were evolved using eSrtA as the parent enzyme in the evolution experiments. In some cases, an evolved sortase comprises a N160K mutation instead of a D160N or a T196S mutation instead of a K196T. Parameters are reported with their standard deviations as determined from three technical replicates. kcat, Km and kcat/Km parameters were determined at 100 mM GGG concentration, while Km,GGG and KH parameters were determined at 1 mM concentration of the listed substrate."}, "[1]": {"tested_on": "LPETG (Abz-LPETGK(Dnp)-CONH2)", "assay": "In vitro sortase kinetics HPLC assay, LPETG substrate", "outline": "(§4)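 Abz-LXEXGK(Dnp) peptides in 300 mM Tris pH 7.5, 150 mM NaCl, 5 mM CaCl2, 5% DMSO, GGG; 22.5° C., acid-quenched, converted fraction by reverse-phase HPLC peak areas. kcat and Km from eight substrate concentrations fit to Michaelis-Menten; KH at 1 mM substrate over eight GGG levels.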"}, "[2]": {"tested_on": "LPESG (Abz-LPESGK(Dnp)-CONH2)", "assay": "In vitro sortase kinetics HPLC assay, LPESG substrate", "outline": "as §4"}, "[3]": {"tested_on": "LAETG (Abz-LAETGK(Dnp)-CONH2)", "assay": "In vitro sortase kinetics HPLC assay, LAETG substrate", "outline": "as §4"}, "LPEAG": {"tested_on": "LPEAG", "assay": "In vitro sortase kinetics HPLC assay, LPEAG substrate", "protocol": "as §1, §2, §3"}, "LPECG": {"tested_on": "LPECG", "assay": "In vitro sortase kinetics HPLC assay, LPECG substrate", "protocol": "as §1, §2, §3"}},
  "note": "Like-named read-outs stand apart in the source and are kept apart here.",
  "data": [
    {"molecule": "eSrtA (protein) QAKPQIPKDKSKVAGYIEIPDADIKEPVYPGPATREQLNRGVSFAEENESLDDQNISIAGHTFIDRPNYQFTNLKAAKKGSMVYFKVGNETRKYKMTSIRNVKPTAVEVLDEQKGKDKQLTLITCDDYNEETGVWETRKIFVATEVK", "values": [
      {"measurement": "KH", "setting": "LSETG; 1 mM LSETG", "result": "37.4 ± 3.4", "unit": "µM"},
      {"measurement": "Km", "setting": "LSETG; 1 mM LSETG, read-out: Km,GGG", "result": "337 ± 16", "unit": "µM"},
      {"measurement": "Kcat (Hz)", "setting": "LSETG; Sub LSETG, 100 mM GGG", "result": "0.102 ± 0.001", "unit": "Hz"},
      {"measurement": "Km", "setting": "LSETG; Sub LSETG, 100 mM GGG, read-out: Km", "result": "533 ± 24", "unit": "µM"},
      {"measurement": "KH", "setting": "[1]; 1 mM LPETG", "result": "32.8 ± 2.4", "unit": "µM"},
      {"measurement": "KN", "setting": "[1]; 1 mM LPETG, eight GGG concentrations", "result": "32.8 ± 2.4", "unit": "µM"},
      {"measurement": "Km", "setting": "[1]; 1 mM LPETG, read-out: Km,GGG", "result": "1617 ± 13", "unit": "µM"},
      {"measurement": "Khydrolysis", "setting": "[1]; 1 mM wt (LPETG) substrate", "result": 22.59, "unit": "µM"},
      {"measurement": "kcat, 1 mM LxExG (Hz)", "setting": "[1]; 1 mM wt (LPETG) substrate, GGG varied", "result": 7.245, "unit": "Hz"},
      {"measurement": "Km", "setting": "[1]; 1 mM wt (LPETG) substrate, read-out: Km, GGG", "result": 2990, "unit": "µM"},
      {"measurement": "KH,LPETG", "setting": "[1]; LPETG substrate", "result": "32.8 ± 2.4", "unit": "µM"},
      {"measurement": "Kcat (Hz)", "setting": "[1]; Sub LPETG, 100 mM GGG", "result": "5.4 ± 0.4", "unit": "Hz"},
      {"measurement": "Km", "setting": "[1]; Sub LPETG, 100 mM GGG, read-out: Km", "result": "230 ± 20", "unit": "µM"},
      {"measurement": "Rel. Activity", "setting": "[1]; Sub LPETG, kcat/Km of the enzyme's preferred substrate relative to kcat/Km on this substrate", "result": 1},
      {"measurement": "Kcat (Hz)", "setting": "[1]; Table 2, Sub LPETG", "result": "5.4 ± 0.4", "unit": "Hz"},
      {"measurement": "Km", "setting": "[1]; Table 2, Sub LPETG, read-out: Km", "result": "230 ± 20", "unit": "µM"},
      {"measurement": "kL/KL/KH", "setting": "[1]; substrate wt (LPETG)", "result": "1.20E+09"},
      {"measurement": "kHydrolysis (Hz)", "setting": "[1]; substrate wt (LPETG), 1 mM, GGG varied", "result": 0.05546, "unit": "Hz"},
      {"measurement": "kcat, 10 mM GGG (Hz)", "setting": "[1]; substrate wt (LPETG), 10 mM GGG", "result": 5.622, "unit": "Hz"},
      {"measurement": "Km", "setting": "[1]; substrate wt (LPETG), read-out: Km, LxExG", "result": 208, "unit": "µM"},
      {"measurement": "KH", "setting": "[2]; 1 mM LPESG", "result": "76 ± 19", "unit": "µM"},
      {"measurement": "KN", "setting": "[2]; 1 mM LPESG, eight GGG concentrations", "result": "76 ± 19", "unit": "µM"},
      {"measurement": "Km", "setting": "[2]; 1 mM LPESG, read-out: Km,GGG", "result": "22000 ± 900", "unit": "µM"},
      {"measurement": "Kcat (Hz)", "setting": "[2]; Sub LPESG, 100 mM GGG", "result": "1.46 ± 0.13", "unit": "Hz"},
      {"measurement": "Km", "setting": "[2]; Sub LPESG, 100 mM GGG, read-out: Km", "result": "318 ± 58", "unit": "µM"},
      {"measurement": "Rel. Activity", "setting": "[2]; Sub LPESG, kcat/Km of the enzyme's preferred substrate relative to kcat/Km on this substrate", "result": 4.9},
      {"measurement": "Kcat (Hz)", "setting": "[2]; Table 2, Sub LPESG", "result": "1.46 ± 0.13", "unit": "Hz"},
      {"measurement": "Km", "setting": "[2]; Table 2, Sub LPESG, read-out: Km", "result": "318 ± 58", "unit": "µM"},
      {"measurement": "kcat, 10 mM GGG (Hz)", "setting": "[2]; substrate 4S (LPESG), 10 mM GGG", "result": 1.74, "unit": "Hz"},
      {"measurement": "Km", "setting": "[2]; substrate 4S (LPESG), read-out: Km, LxExG", "result": 672, "unit": "µM"},
      {"measurement": "KH", "setting": "[3]; 1 mM LAETG", "result": "26.5 ± 0.6", "unit": "µM"},
      {"measurement": "KN", "setting": "[3]; 1 mM LAETG, eight GGG concentrations", "result": "26.5 ± 0.6", "unit": "µM"},
      {"measurement": "Km", "setting": "[3]; 1 mM LAETG, read-out: Km,GGG", "result": "807 ± 56", "unit": "µM"},
      {"measurement": "Kcat (Hz)", "setting": "[3]; Sub LAETG, 100 mM GGG", "result": "1.31 ± 0.26", "unit": "Hz"},
      {"measurement": "Km", "setting": "[3]; Sub LAETG, 100 mM GGG, read-out: Km", "result": "6070 ± 870", "unit": "µM"},
      {"measurement": "Rel. Activity", "setting": "[3]; Sub LAETG, kcat/Km of the enzyme's preferred substrate relative to kcat/Km on this substrate", "result": 103.3},
      {"measurement": "Kcat (Hz)", "setting": "[3]; Table 2, Sub LAETG", "result": "1.31 ± 0.26", "unit": "Hz"},
      {"measurement": "Km", "setting": "[3]; Table 2, Sub LAETG, read-out: Km", "result": "6070 ± 870", "unit": "µM"},
      {"measurement": "preference for LPETG over LAETG", "setting": "[3]; ratio of kcat/KM", "result": 103, "unit": "fold"},
      {"measurement": "specificity (relative cat. Efficiency, fold)", "setting": "[3]; ratio of kcat/Km between 2A (LAETG) and wt (LPETG) substrates, favoured over disfavoured", "result": 122.6, "unit": "fold"},
      {"measurement": "kcat, 10 mM GGG (Hz)", "setting": "[3]; substrate 2A (LAETG), 10 mM GGG", "result": 1.316, "unit": "Hz"},
      {"measurement": "Km", "setting": "[3]; substrate 2A (LAETG), read-out: Km, LxExG", "result": 6160, "unit": "µM"},
      {"measurement": "KH", "setting": "LPEAG; 1 mM LPEAG", "result": "599 ± 41", "unit": "µM"},
      {"measurement": "Km", "setting": "LPEAG; 1 mM LPEAG, read-out: Km,GGG", "result": "48400 ± 3100", "unit": "µM"},
      {"measurement": "Kcat (Hz)", "setting": "LPEAG; Sub LPEAG, 100 mM GGG", "result": "0.74 ± 0.04", "unit": "Hz"},
      {"measurement": "Km", "setting": "LPEAG; Sub LPEAG, 100 mM GGG, read-out: Km", "result": "83.4 ± 0.6", "unit": "µM"},
      {"measurement": "activity for LPECG compared with LPETG", "setting": "LPECG", "result": "exceeds that of LPETG"},
      {"measurement": "KH", "setting": "LPECG; 1 mM LPECG", "result": "620 ± 150", "unit": "µM"},
      {"measurement": "Km", "setting": "LPECG; 1 mM LPECG, read-out: Km,GGG", "result": "57000 ± 33000", "unit": "µM"},
      {"measurement": "Kcat (Hz)", "setting": "LPECG; Sub LPECG, 100 mM GGG", "result": "3.5 ± 0.3", "unit": "Hz"},
      {"measurement": "Km", "setting": "LPECG; Sub LPECG, 100 mM GGG, read-out: Km", "result": "72.5 ± 5.6", "unit": "µM"}
    ]}
  ]
}
